Measured values as given in patent US20110117113A1, “IMMUNOGLOBULIN SINGLE VARIABLE DOMAIN DIRECTED AGAINST HUMAN CXCR4 AND OTHER CELL ASSOCIATED PROTEINS AND METHODS TO GENERATE THEM” (priority 2009, published 2011).

B1: 238D2: monovalent anti CXCR4 Nanobody, SEQ ID NO: 2 (protein)
VHH: EVQLVESGGGLVQTGGSLRLSCAASGFTFSSYAMSWVRQAPGKGLEWVSGIKSSGDSTRYAGSVKGRFTISRDNAKNMLYLQMYSLKPEDTAVYYCAKSRVSRTGLYTYDNRGQGTQVTVSS
modifications: Nanobody
B2: Nanobody 238D4 (VHH)
VHH: EVQLMESGGGLVQAGGSLRLSCAASGRTFNNYAMGWFRRAPGKEREFVAAITRSGVRSGVSAIYGDSVKDRFTISRDNAKNTLYLQMNSLKPEDTAVYTCAASAIGSGALRRFEYDYSGQGTQVTVSS

Legend:
wildtype human CXCR4 = target: T1, wildtype human CXCR4 (Homo sapiens, UniProt P61073); assay: Footprint assay, flow cytometry binding to wildtype human CXCR4 on Hek293T cells; settings: Myc-tag detection, 10 nM and 100 nM Nanobody, average n = 3, wild type used for normalization
T1 construct: expressed in transfected cells; host or cells: Hek293T, transient, pcDNA3.1
T1 sequence (P61073 whole entry): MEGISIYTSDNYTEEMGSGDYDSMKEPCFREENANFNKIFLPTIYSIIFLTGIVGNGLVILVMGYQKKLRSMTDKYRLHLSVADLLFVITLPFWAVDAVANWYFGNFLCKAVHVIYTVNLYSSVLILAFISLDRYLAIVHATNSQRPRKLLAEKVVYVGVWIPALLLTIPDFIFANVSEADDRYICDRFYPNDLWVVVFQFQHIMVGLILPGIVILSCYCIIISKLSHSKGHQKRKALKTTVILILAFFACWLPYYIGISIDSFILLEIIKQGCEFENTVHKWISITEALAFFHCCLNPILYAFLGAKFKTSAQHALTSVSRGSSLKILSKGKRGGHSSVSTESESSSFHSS
From the text: (§1) Based on the data from example 1.8, we introduced 3 single point-mutations in ECL2 of CXCR4 that allowed to discriminate between 238D2 and 238D4-like epitopes: V196E (specifically disturbing D2 binding)-SEQ ID NO: 20, D187V (specifically disturbing D4 binding)-SEQ ID NO: 21, F189V (disturbing binding of both D2 and D4)-SEQ ID NO: 19. […] For the epitope mapping, transient transfections of the three CXCR4 mutants and wildtype human CXCR4 in the pcDNA3.1 vector were done in Hek293T cells, after which Nanobody binding of different families was assessed by flow cytometry using detection of the Myc-tag, followed by secondary anti-mouse PE. Two concentrations of Nanobody were tested, 10 nM and 100 nM, and experiment was repeated with essentially the same results. Binding of the Nanobodies to HEK293T hCXCR4 cells was used for normalization using the following formulas:
(§2) Percentage of binding to the mutant receptors was calculated for each Nanobody concentration, and a position was considered as critical when less than 25% residual binding (average of n=3) was observed (Table C-5). […] Nanobodies could be grouped according to their different binding patterns, not only in “238D2-like” or “epitope A binders” and “238D4-like” or “epitope B binders” but also into other new groups.

CXCR4 mutant 1 (F189V) = target: T2, CXCR4 mutant 1 (F189V) (Homo sapiens, UniProt P61073, F189V); assay: Footprint assay, flow cytometry binding to CXCR4 F189V on Hek293T cells; settings: Myc-tag detection, 10 nM and 100 nM Nanobody, average n = 3, relative to hCXCR4
T2 construct: expressed in transfected cells; host or cells: Hek293T, transient, pcDNA3.1
T2 sequence (P61073 whole entry F189V): as the sequence (P61073 whole entry) above, with F189V counted along it
From the text: as §1, §2

CXCR4 (N119A) = target: T3, CXCR4 (N119A) (Homo sapiens, UniProt P61073, N119A); assay: Basal inositol phosphate accumulation in HEK293T cells transiently expressing CXCR4 (N119A); format: cell-based; settings: ligand-induced alteration of basal inositol phosphate accumulation
T3 construct: expressed in transfected cells; host or cells: HEK293T, transient; membranes in A4, whole cells in A5
T3 sequence (P61073 whole entry N119A): as the sequence (P61073 whole entry) above, with N119A counted along it
From the text: The functional profile of monovalent Nanobodies 238D2 and 238D4 as well as their bivalent fusion products L3 and L8 on CXCR4 (N119A) were investigated by measurement of the ligand-induced alteration of the basal inositol phosphate accumulation. HEK293T cells transiently expressing CXCR4 (N119A) show a 3-8 times higher basal rate of inositol phosphate accumulation compared to wild type CXCR4 or mock (which are virtually at the same level). […] The nanobody-induced reduction of basal inositol phosphate accumulation was antagonized by the selective neutral CXCR4 antagonist plerixafor confirming that the observed […] effects are mediated via CXCR4 (N119A).

[1] = target: T4, CXCR4 mutation library (Human CXCR4-short) (Homo sapiens, UniProt P61073, D187V); assay: Shotgun mutagenesis epitope mapping, immunofluorescence on CXCR4 mutation library in HEK-293T; format: binding; settings: residue D187; mutation D187V; normalized to wild type; 3 experiments (+/−range)
T4 construct: expressed in transfected cells; host or cells: HEK-293T, transient, 384-well
T4 sequence (P61073 whole entry D187V): as the sequence (P61073 whole entry) above, with D187V counted along it
From the text: (§3) Method: See e.g. Willis, et al. 2008. Virus-like particles as quantitative probes of membrane protein interactions. Biochemistry 47:6988-6990. In short, the method comprises the following steps:
(§4) Create comprehensive mutation library • Start with a cDNA in eukaryotic expression plasmid • Create library where every amino acid is individually mutated
(§5) Express each clone within living cells in 384-well microplates
(§6) Detect structure and/or function of proteins
(§7) • Parental plasmid: Human CXCR4-short (SEQ ID NO: 6, 352 amino acids) • Epitope tags: N-terminal Flag (to detect surface expression), C-terminal V5 (to detect full-length translation) • Cell types used for immunofluorescence assays: HEK-293T
(§8) The immunofluorescence assay conditions (to detect binding) were optimized for the nanbodies to be tested. In short, 384-well immunofluorescence (IF) assay using HEK-293T cells transiently was transfected with different concentrations of CXCR4 DNA. The plate was first incubated with different concentrations of either Nanobody 238D2 or 238D4, then with 9E10, and finally with Cy3. The commercially-available anti-CXCR4 MAb 12G5 was used as an IF control.
(§9) Mapping Nanobody Binding to CXCR4 Mutation Library: The entire library was screened in triplicate with each Nanobody. The data was background-subtracted and normalized to wild type reactivity and averaged across the repeats. Nanobody binding was plotted as a function of average surface expression, and measured by immunoreactivity of an N-terminal Flag epitope tag. Thresholds of 60% Flag and 30% Nanobody were used to identify critical clones. Using standard IF conditions, we identified 1 critical residue (2 critical clones). Using increased stringency assay conditions (high salt), we identified 5 additional residues (Tables C-3 and C-4).

[2] = test system: CXCR4 mutation library (Human CXCR4-short); assay: as above; format: binding
From the text: as §3, §4, §5, §6, §7, §8, §9

[3] = target: T5, CXCR4 mutation library (Human CXCR4-short) (Homo sapiens, UniProt P61073, S178C); assay: as above; format: binding; settings: residue S178; mutation S178C; normalized to wild type; 3 experiments (+/−range)
T5 construct: expressed in transfected cells; host or cells: HEK-293T, transient, 384-well
T5 sequence (P61073 whole entry S178C): as the sequence (P61073 whole entry) above, with S178C counted along it
From the text: as §3, §4, §5, §6, §7, §8, §9

[4] = target: T6, CXCR4 mutation library (Human CXCR4-short) (Homo sapiens, UniProt P61073, W195R); assay: as above; format: binding; settings: residue W195; mutation W195R; normalized to wild type; 3 experiments (+/−range); 238D2 critical residues under high stringency
T6 construct: expressed in transfected cells; host or cells: HEK-293T, transient, 384-well
T6 sequence (P61073 whole entry W195R): as the sequence (P61073 whole entry) above, with W195R counted along it
From the text: as §3, §4, §5, §6, §7, §8, §9

[5] = target: T7, CXCR4 mutation library (Human CXCR4-short) (Homo sapiens, UniProt P61073, P163L/S178I); assay: as above; format: binding; settings: residue S178; mutations P163L, S178I; normalized to wild type; 3 experiments (+/−range)
T7 construct: expressed in transfected cells; host or cells: HEK-293T, transient, 384-well
T7 sequence (P61073 whole entry P163L/S178I): as the sequence (P61073 whole entry) above, with P163L, S178I counted along it
From the text: as §3, §4, §5, §6, §7, §8, §9

[6] = target: T8, wildtype human CXCR4 (pcDNA3.1-CXCR4, expressed in HEK293T) (human, UniProt P61073 1-352); assay: competition with [125I]-238D2, HEK293T-CXCR4 membranes
T8 construct: whole, on cells; also called hCXCR4; HEK293T CXCR4
T8 sequence (P61073 whole entry): as the sequence (P61073 whole entry) above

[7] = target: T8, wildtype human CXCR4 (pcDNA3.1-CXCR4, …); assay: competition with [125I]-CXCL12, HEK293T-CXCR4 membranes
[8] = target: all CXCR4 library clones containing a mutation at D187; assay: immunofluorescence, average over all clones with a mutation at D187
[9] = target: all CXCR4 library clones containing a mutation at S178; assay: immunofluorescence, average over all clones with a mutation at S178

Row | Molecule | HEK293T CXCR4 binding (wildtype human CXCR4) | HEK293T F189V binding (CXCR4 mutant 1 (F189V)) | functional profile on CXCR4 (N119A) (in words) (CXCR4 (N119A)) | % immunofluoresence, clone 2084 [1] | average nanobody reactivity, residue N192 ([2]; all clones containing a mutation at N192, * high stringency conditions) | average nanobody reactivity, residue P191 ([2]; all clones containing a mutation at P191, * high stringency conditions) | average nanobody reactivity, residue V196 ([2]; all clones containing a mutation at V196, * high stringency conditions) | average nanobody reactivity, residue W195 ([2]; all clones containing a mutation at W195, * high stringency conditions) | average nanobody reactivity, residue E277 ([2]; average of all clones containing a mutation at E277, * high stringency conditions) | average nanobody reactivity, residue F189 ([2]; average of all clones containing a mutation at F189) | % immunofluoresence, clone 2396 [3] | % immunofluoresence, clone 3630 [4] | % immunofluoresence, clone 709 [5] | pKi [6] | pKi [7] | average nanobody reactivity [8] | average nanobody reactivity [9]
1 | B1 | + (>75% binding to mutant rel. to hCXCR4) | − (<=25% binding to mutant rel. to hCXCR4) | Only antagonistic but no significant inverse agonistic activities | 93.6 (5.2) % | 8.3* | 15.8* | 20.6* | 10.0* | 27.5* | −0.9 | 44.9 (13.4) % | 10.0 (10.4) % | 64.1 (19.6) % | – | – | – | –
2 | B2 | – | – | – | – | – | – | – | – | – | – | – | – | – | 8.8 pKi | 8.22 pKi | -12.2% | 23.2%
